Laboratory results reported in US8252764B2, “Compositions and methods of use of targeting peptides against placenta and adipose tissues” (priority 2000, dated 2012).

Assays:
GST-β1 = target: T1, GST-β1 (Homo sapiens, UniProt P05556); test: Annexin V binding to GST-β1 integrin cytoplasmic domain (ELISA)
T1 construct: Plates were coated with GST fusion proteins of the cytoplasmic domains of various integrins
Description: (§1) Competitive binding assays were performed to examine the binding of Annexin V to β5 integrin and the effect of the VISY peptide. Plates were coated with GST fusion proteins of the cytoplasmic domains of various integrins and Annexin V was added to the plates. Binding of Annexin V was determined using anti-Annexin V antibodies. […] Calcium was used because Annexin V activity has been reported to be modulated by calcium. Binding of Annexin V to GST-β5 was blocked by addition of the VISY peptide (FIG. 29A).

GST-β3 = target: T2, GST-β3 (Homo sapiens, UniProt P05106); test: Annexin V binding to GST-β3 integrin cytoplasmic domain (ELISA)
T2 sequence (P05106 742-788 limits assumed): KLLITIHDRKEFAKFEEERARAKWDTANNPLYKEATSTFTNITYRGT
Description: as §1

β5 integrin = target: T3, β5 integrin (Homo sapiens, UniProt P18084); test: Annexin V binding to GST-β5 integrin cytoplasmic domain (ELISA, competition); conditions: binding dependent on the buffer: low in TBS, high in cytoplasmic buffer
T3 construct: Plates were coated with GST fusion proteins of the cytoplasmic domains of various integrins
T3 sequence (P18084 743-799 limits assumed): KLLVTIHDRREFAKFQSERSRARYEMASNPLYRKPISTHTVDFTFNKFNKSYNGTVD
Description: FIG. 29A. Competitive binding of Annexin V to β5 integrin with VISY peptide. Binding assays were performed by ELISA.
as §1
A reciprocal study was performed, using Annexin V to coat plates and adding GST fusion proteins of integrin cytoplasmic domains. Binding was assessed using anti-GST fusion protein antibodies. […] In some studies, calcium ion appeared to interfere with the binding interaction between GST-β5 and Annexin V, with decreased binding observed in the presence of calcium (not shown).

placenta [1] = test: Peptide embryotoxicity in pregnant mice; type: in vivo, mouse; conditions: subcutaneous injections from ~12 dpc
Source text: FIG. 7. TPKTSVT (SEQ ID NO:5) peptide inhibits mouse pregnancy and is teratogenic. (A) Pregnancy courses (representative from 5 independent experiments) in mice subcutaneously injected with the indicated phage or peptides were monitored by daily weighing of the mice upon each injection (arrows). (B) Appearance of a normally developed 20 dpc embryo (left) for control GST fusion treatment compared to a representative 20 dpc embryo (right) resulting from TPKTSVT (SEQ ID NO:5) linked to GST fusion treatment. A severely teratogenic phenotype is observed with the placental targeting fusion peptide. (C) and […]) Hematoxylin/eosin staining of 20 dpc paraffin-embedded placentas derived from mice injected for 7 days with (C) control GST fusion or (D) the TPKTSVT (SEQ ID NO:5) linked to GST fusion peptide. Note hemorrhage (black asterisks), necrosis (white asterisks), and fibrosis (arrowheads). Bar: 500 μm (50 μm for insets).
Peptide Embryotoxicity For peptide embryotoxicity studies, agents were injected at the following daily doses: GST-peptides 0.1 mg (˜3 nMoles), FITC-peptides 50 μg (˜30 nMoles),and phage-peptides 10″ TU. All agents were dissolved in PBS. Mice were injected subcutaneously in the back (5-10 injections per course).
The phage or fusion peptides were subcutaneously injected and the progression of pregnancy was compared with mice injected with control phage, control peptides, or saline. Multiple injections of the TPKTSVT (SEQ ID NO:5) peptide were administered, starting at mid-pregnancy (˜12 days postconception, dpc) in doses non-toxic to the mother.

[2] = system: mouse villous yolk sac (vys); test: Peptide localization in placenta (immunohistochemistry, FITC immunofluorescence); type: in vivo; conditions: 18 dpc pregnant mice, intravenous, 6 h
Description: Fusion and Recombinant Peptides Carboxyfluorescein (FITC)-conjugated [sequence] […] The FITC-peptide stocks were made by dissolving lyophilized peptides in DMSO to a concentration of 20 mM, after which the peptides were diluted to 1 mM with PBS (phosphate buffered saline) and aliquots were frozen until use. The [sequence] (SEQ ID NO:144) peptide and an unrelated control peptide, [sequence] (SEQ ID NO:87), fused in-frame with GST at the amino-terminus were purified to approximately 90% purity using the BugBuster GST Bind Kit (Novagen, Madison, Wis.). Purified peptides were buffer-exchanged into PBS using Centricon PL-10 columns (Millipore, Bedford, Mass.) and the aliquots were frozen until use. […]
Peptide Localization in Tissues Immunohistochemistry on sections of formalin-fixed, paraffin-embedded mouse tissue was performed as described (Pasqualini et al., 2000; Pasqualini and Ruoslahti, 1996): For phage-peptide immunolocalization, a rabbit anti-fd phage antibody (Sigma Chemicals, St. Louis, Mo.) was used at 1:1,000 dilution and detected with a secondary horseradish peroxidase (HRP)-conjugated antibody. For GST-peptide immunolocalization, a goat anti-GST antibody (Amersham, Piscataway, N.J.) was used at 1:1,000 dilution and detected with a secondary alkaline phosphatase (AP)-conjugated antibody. […]

placenta [3] = conditions: GST conjugates-I; 1 mouse sc (predominantly) or iv ~every other day, day 4-day 17, 10 times, Total 800 μg
Source text: The CARAC peptide (SEQ ID NO:12), an adipose targeting peptide (FE, TREVHRS, SEQ ID NO:13) or fd-tet phage were used as non-placental targeting controls.

[4] = target: T4, FcRn/β2m receptor complex (Mus musculus, UniProt P01887+Q61559); test: Placental IgG transcytosis blocking; type: in vivo; conditions: 18 dpc pregnant mouse, iv, 6 h
T4 construct: from tissue; host or cells: placenta (visceral yolk sac) of 18 dpc pregnant C57BL/6 mice, in vivo
T4 sequence (Q61559 22-365): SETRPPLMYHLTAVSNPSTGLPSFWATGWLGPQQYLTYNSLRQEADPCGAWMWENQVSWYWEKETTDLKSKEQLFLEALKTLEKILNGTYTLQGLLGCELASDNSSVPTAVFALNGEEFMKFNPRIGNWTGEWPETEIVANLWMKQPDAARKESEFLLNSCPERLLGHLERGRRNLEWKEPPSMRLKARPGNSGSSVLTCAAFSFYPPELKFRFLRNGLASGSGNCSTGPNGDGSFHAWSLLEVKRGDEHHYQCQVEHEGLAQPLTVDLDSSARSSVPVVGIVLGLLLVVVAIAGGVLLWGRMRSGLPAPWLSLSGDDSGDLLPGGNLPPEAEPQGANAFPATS
T4 sequence (P01887 21-119): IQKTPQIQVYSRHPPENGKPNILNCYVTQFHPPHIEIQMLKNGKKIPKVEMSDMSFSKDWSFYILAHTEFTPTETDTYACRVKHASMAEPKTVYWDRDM
Description: A 18 dpc pregnant mouse was intravenously injected with: (A) 100 mg of control GST fusion or (B) TPKTSVT (SEQ ID NO:5) linked to GST. The IgG distribution in the placenta after 6 h of peptide circulation was detected by anti-mouse IgG immunohistochemistry in paraffin sections.
For in vivo peptide homing validation, 10 μl of FTC-peptide stocks diluted 20-fold with PBS or, 250 μl of 5 mg/ml GST-peptides were injected. For phage homing competition and IgG transcytosis blocking experiments, 500 μl of 5 mg/ml GST-peptides were administered intravenously.
For GST-peptide immunolocalization, a goat anti-GST antibody (Amersham, Piscataway, N.J.) was used at 1:1,000 dilution and detected with a secondary alkaline phosphatase (AP)-conjugated antibody. For mouse IgG immunolocalization, the ARK Peroxidase Kit (DAKO, Carpinteria, Calif.) was used. All immunohistochemistry and FITC immunofluorescence images were captured using an Olympus IX70 microscope and digital camera setup.

placental transporter = test: Phage recovery from embryos (materno-fetal transfer); type: in vivo, mouse; conditions: excess of co-injected peptide
Description: FIG. 4. The TPKTSVT (SEQ ID NO:5) peptide specifically binds a placental transporter. (A) Recovery of indicated phage from embryos carried by 18 dpc pregnant mice intravenously injected (tail vein) with 10^10 TU of the indicated phage 6 h prior to phage recovery or immunohistochemistry. […] TPKTSVT (SEQ ID NO:5) phage were administered alone (dark cross-hatched) or co-administered with control-GST (black) or TPKTSVT (SEQ ID NO:5) linked to GST (white bar). Shown are mean+/−SEM (standard error) from different embryos. (B-D) Anti-phage IMP immunohistochemistry (arrowheads) in paraffin sections of the vys from the corresponding mice, as indicated. Asterisks mark embryonic capillaries. Bar: 20 μm.
Phage Recovery Mouse placentas and embryonic livers were individually weighed, ground with a glass Dounce homogenizer and suspended in 1 ml of Dulbecco's Modified Eagle's Medium (DMEM) containing proteinase inhibitors (DMEM-prin—1 mM PMSF, 20 μg/ml aprotinin, and 1 μg/ml leupeptin). The suspension was vortexed and washed three times with DMEM-prin. […]
The TPKTSVT (SEQ ID NO:5) Peptide Binds to a Placental Transporter The TPKTSVT (SEQ ID NO:5) peptide localizes to the vys (FIG. 3), which is the tissue primarily responsible for materno-fetal transport in mice. […] Either TPKTSVT (SEQ ID NO:5)-phage or control phage were injected into pregnant mice and the recovery of phage from embryos was determined.

T1 sequence (P05556 752-798 limits assumed): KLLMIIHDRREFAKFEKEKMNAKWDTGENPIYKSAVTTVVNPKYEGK

binding of Annexin V to GST-β1 integrin (GST-β1) | binding of Annexin V to GST-β3 integrin (GST-β3) | binding of Annexin V to GST-β5 integrin (β5 integrin) | Substance | embryos on the 20th day of pregnancy (placenta [1]) | progression of pregnancy (weight gain) (placenta [1]; compared to control phage or GST-peptide) | localization in placenta [2] | Peptide Effect on Embryo (placenta [3]) | Pregnancy Outcome (placenta [3]) | effect on placental transfer of IgG to the vys [4] | effect on materno-fetal transfer / vys uptake of TPKTSVT-phage on co-injection (placental transporter)
did not bind | did not bind | bound strongly | Annexin V: 36 kDa endogenous protein analog of the VISY peptide, GenBank GI-468888 | – | – | – | – | – | – | –
– | – | – | GST-PA: PA placental targeting peptide (TPKTSVT) fused to GST (glutathion S-transferase) | Growth-retarded, dead, or partially resorbed embryos | diminished weight gain | readily detectable in the apical cytoplasm of the vys | Pregnancy termination | No delivery or fetuses after 21 d | blocked translocation of IgG through the placenta | prevented internalization
